One data set concerns biotinyl-Phe-oxazolone. Kind of data set: self-aminoacylation, catalytic enhancement (BFO) (fold over background); higher = more active; k-Seq, kA / k0A0; sequences stand for … in GGGAAUGGAUCCACAUCUACGAAUUC…UUCACUGCAGACUUGACGAAGCUG
In outline: (§1)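 Catalytic enhancement equals the median kA over the uncatalyzed rate, the latter read from the low-activity peak of a bimodal Gaussian fit. Values of kA came from fitting each sequence's fraction reacted to a pseudo-first-order model, with 1000 bootstraps. Reacted RNA was captured with streptavidin and quantified by triplicate qPCR and Illumina sequencing after 90 minutes at room temperature with 2–1250 μM biotinyl-aminoacyl-oxazolone and 0.43 μM mutagenized RNA pools bearing a 21-nt variable region.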

The next data set deals with biotinyl-Val-oxazolone. Kind of data set: self-aminoacylation, catalytic enhancement (BVO) (fold over background); higher = more active; k-Seq, kA / k0A0; sequences stand for … in GGGAAUGGAUCCACAUCUACGAAUUC…UUCACUGCAGACUUGACGAAGCUG
The method, boiled down: as §1

Another data set has as its system biotinyl-Trp-oxazolone. Put plainly: self-aminoacylation, catalytic enhancement (BWO) (fold over background); higher = more active; k-Seq, kA / k0A0; sequences stand for … in GGGAAUGGAUCCACAUCUACGAAUUC…UUCACUGCAGACUUGACGAAGCUG
In outline:
as §1

Another data set deals with biotinyl-Leu-oxazolone. Put plainly: self-aminoacylation, catalytic enhancement (BLO) (fold over background); higher = more active; k-Seq, kA / k0A0; sequences stand for … in GGGAAUGGAUCCACAUCUACGAAUUC…UUCACUGCAGACUUGACGAAGCUG
In outline:
as §1

The next data set concerns biotinyl-Ile-oxazolone. Put plainly: self-aminoacylation, catalytic enhancement (BIO) (fold over background); higher = more active; k-Seq, kA / k0A0; sequences stand for … in GGGAAUGGAUCCACAUCUACGAAUUC…UUCACUGCAGACUUGACGAAGCUG
In outline: as §1

A further data set relates to biotinyl-Met-oxazolone. Kind of data set: self-aminoacylation, catalytic enhancement (BMO) (fold over background); higher = more active; k-Seq, kA / k0A0; sequences stand for … in GGGAAUGGAUCCACAUCUACGAAUUC…UUCACUGCAGACUUGACGAAGCUG
The method, boiled down:
as §1

We go through 25 sequences from the supplement of paper PMC9233669.

Variants at the floor of the assay were thinned out.

As for “AUUACCCUGGUCAUCGGGCGA [Fam2.1 aminoacylation ribozyme variant]”, the self-aminoacylation was found to be 20.1 in the data set with biotinyl-Phe-oxazolone; 4.62 in the data set with biotinyl-Val-oxazolone; 8.14 with biotinyl-Trp-oxazolone; 10 in the data set on biotinyl-Leu-oxazolone; 4.15 in the data set with biotinyl-Ile-oxazolone; 8.99 with biotinyl-Met-oxazolone.

As to “AUUACCCUGGUCAUAGAGUGU [Fam2.1 aminoacylation ribozyme variant]”, the self-aminoacylation in the data set on biotinyl-Phe-oxazolone came to 13.5; in the data set on biotinyl-Val-oxazolone, 2.58; in the data set with biotinyl-Trp-oxazolone, 4.8; in the data set with biotinyl-Leu-oxazolone, 3.73; with biotinyl-Ile-oxazolone it was 2.08; in the data set on biotinyl-Met-oxazolone it was 4.07.

On to “CUUACCCUGGUCAGCGAGUGA [Fam2.1 aminoacylation ribozyme variant]”, for which the self-aminoacylation in the data set with biotinyl-Phe-oxazolone came to 29.2; in the data set on biotinyl-Val-oxazolone it was 3.69; with biotinyl-Trp-oxazolone, 7.19; with biotinyl-Leu-oxazolone it was 6.11; in the data set on biotinyl-Ile-oxazolone it was 3.42; in the data set with biotinyl-Met-oxazolone, 4.38.

Regarding “AUGCACCUAGGUCAUGGGGUG [Fam2.2 aminoacylation ribozyme variant]”, the self-aminoacylation in the data set with biotinyl-Phe-oxazolone turned out to be 31.3; in the data set on biotinyl-Val-oxazolone, 3.42; with biotinyl-Trp-oxazolone, 5.66; with biotinyl-Leu-oxazolone, 4.53; in the data set on biotinyl-Ile-oxazolone, 3.85; in the data set on biotinyl-Met-oxazolone, 4.33.

Turning to “AUUCACCUAGGUCUUCCGGUG [Fam2.2 aminoacylation ribozyme variant]”, the self-aminoacylation came out at 99.3 in the data set on biotinyl-Phe-oxazolone; 7 in the data set with biotinyl-Val-oxazolone; 12.2 in the data set on biotinyl-Trp-oxazolone; 17.2 with biotinyl-Leu-oxazolone; 7.6 in the data set with biotinyl-Ile-oxazolone; 11.2 in the data set on biotinyl-Met-oxazolone.

Regarding “AUUAUGCUGGUCAUCGAGUGA [Fam2.1 aminoacylation ribozyme variant]”, the self-aminoacylation in the data set on biotinyl-Phe-oxazolone came to 14.9; with biotinyl-Val-oxazolone it was 2.69; in the data set on biotinyl-Trp-oxazolone it was 5.2; in the data set with biotinyl-Leu-oxazolone, 4.22; in the data set with biotinyl-Ile-oxazolone, 3.15; in the data set with biotinyl-Met-oxazolone it was 4.1.

In the case of “CCACACUUCAAGCAUCCGGUC [Fam1B.1 aminoacylation ribozyme variant]”, the self-aminoacylation was determined as 0.999 in the data set on biotinyl-Phe-oxazolone; 1.38 with biotinyl-Val-oxazolone; 1.11 in the data set on biotinyl-Trp-oxazolone; 0.817 in the data set on biotinyl-Leu-oxazolone; 1.03 in the data set on biotinyl-Ile-oxazolone; 0.859 with biotinyl-Met-oxazolone.

In the case of “AAGUUUGCUAAUAGCCGCAGG [Fam3.1 aminoacylation ribozyme variant]”, the self-aminoacylation is 0.671 with biotinyl-Phe-oxazolone; 0.853 in the data set with biotinyl-Val-oxazolone; 0.916 in the data set on biotinyl-Trp-oxazolone; 0.765 in the data set on biotinyl-Leu-oxazolone; 0.792 in the data set on biotinyl-Ile-oxazolone; 0.745 in the data set on biotinyl-Met-oxazolone.

As for “AUUACCCGGGUCAUAGAGUGA [Fam2.1 aminoacylation ribozyme variant]”, the self-aminoacylation in the data set with biotinyl-Phe-oxazolone is 71.4; with biotinyl-Val-oxazolone, 4.45; in the data set with biotinyl-Trp-oxazolone it was 10.4; in the data set with biotinyl-Leu-oxazolone, 9.4; in the data set with biotinyl-Ile-oxazolone, 4.55; with biotinyl-Met-oxazolone, 9.33.

For the sequence “AAGUUUGCUCAUAGCCGCAAG [Fam3.1 aminoacylation ribozyme variant]”, the self-aminoacylation in the data set on biotinyl-Phe-oxazolone came to 1.35; in the data set with biotinyl-Val-oxazolone, 0.895; in the data set with biotinyl-Trp-oxazolone, 0.78; in the data set on biotinyl-Leu-oxazolone, 0.719; in the data set on biotinyl-Ile-oxazolone, 0.88; with biotinyl-Met-oxazolone it was 0.891.

Consider “AUUACCCUAGUGAUCGAGUGA [Fam2.1 aminoacylation ribozyme variant]”, for which the self-aminoacylation in the data set on biotinyl-Phe-oxazolone stood at 7.82; with biotinyl-Val-oxazolone, 1.86; with biotinyl-Trp-oxazolone, 3.1; in the data set on biotinyl-Leu-oxazolone, 2.72; in the data set with biotinyl-Ile-oxazolone it was 1.76; in the data set with biotinyl-Met-oxazolone it was 3.31.

For the sequence “AACUUUGCCAAUAGUCGCAAG [Fam3.1 aminoacylation ribozyme variant]”, the self-aminoacylation in the data set on biotinyl-Phe-oxazolone came to 14.7; in the data set with biotinyl-Val-oxazolone, 2.64; in the data set with biotinyl-Trp-oxazolone it was 3.85; with biotinyl-Leu-oxazolone, 2.81; in the data set with biotinyl-Ile-oxazolone, 2.62; in the data set on biotinyl-Met-oxazolone, 2.79.

In the case of “AAGUUUGUUAAUAGUCGAAAG [Fam3.1 aminoacylation ribozyme variant]”, the self-aminoacylation in the data set on biotinyl-Phe-oxazolone stood at 1.08; with biotinyl-Val-oxazolone it was 0.998; in the data set on biotinyl-Trp-oxazolone, 0.713; in the data set with biotinyl-Leu-oxazolone it was 0.935; with biotinyl-Ile-oxazolone it was 0.947; with biotinyl-Met-oxazolone, 0.764.

Regarding “CUACCUCAAACAAUCGGUCUC [Fam1A.1 aminoacylation ribozyme variant]”, the self-aminoacylation in the data set on biotinyl-Phe-oxazolone was found to be 2.7; in the data set on biotinyl-Val-oxazolone, 1.07; in the data set with biotinyl-Trp-oxazolone it was 1.42; in the data set on biotinyl-Leu-oxazolone it was 0.752; in the data set with biotinyl-Ile-oxazolone, 0.869; with biotinyl-Met-oxazolone, 0.879.

In the case of “AUUCACCUGGUCAUCGAGUGA [Fam2.1 aminoacylation ribozyme variant]”, the self-aminoacylation with biotinyl-Phe-oxazolone worked out at 9.12; in the data set with biotinyl-Val-oxazolone it was 3.58; in the data set on biotinyl-Trp-oxazolone, 8.2; in the data set on biotinyl-Leu-oxazolone it was 5.93; in the data set with biotinyl-Ile-oxazolone it was 3.55; in the data set with biotinyl-Met-oxazolone, 5.88.

As to “AUUACCCUGGACAUCGAGUGA [Fam2.1 aminoacylation ribozyme variant]”, the self-aminoacylation in the data set on biotinyl-Phe-oxazolone amounted to 19.6; with biotinyl-Val-oxazolone, 2.79; with biotinyl-Trp-oxazolone, 5.97; in the data set with biotinyl-Leu-oxazolone, 5.18; in the data set on biotinyl-Ile-oxazolone it was 2.52; with biotinyl-Met-oxazolone, 5.32.

Regarding “ACACAAUUCAAGCAAUCGGUC [Fam1B.1 aminoacylation ribozyme variant]”, the self-aminoacylation in the data set on biotinyl-Phe-oxazolone was 1.95; with biotinyl-Val-oxazolone, 1.18; in the data set with biotinyl-Trp-oxazolone, 1.67; with biotinyl-Leu-oxazolone it was 1.21; in the data set on biotinyl-Ile-oxazolone, 1.44; with biotinyl-Met-oxazolone, 1.21.

Turning to “CCACACUUCAAGCAAAAGGUC [Fam1B.1 aminoacylation ribozyme variant]”, the self-aminoacylation in the data set on biotinyl-Phe-oxazolone was determined as 1.05; with biotinyl-Val-oxazolone it was 0.721; in the data set on biotinyl-Trp-oxazolone, 0.598; in the data set on biotinyl-Leu-oxazolone, 0.524; in the data set with biotinyl-Ile-oxazolone, 0.598; in the data set on biotinyl-Met-oxazolone it was 0.434.

For “AUAACACUGGUCAUCGAGUGA [Fam2.1 aminoacylation ribozyme variant]”, the self-aminoacylation was determined as 14.7 with biotinyl-Phe-oxazolone; 3.06 in the data set on biotinyl-Val-oxazolone; 6.89 in the data set on biotinyl-Trp-oxazolone; 4.62 in the data set with biotinyl-Leu-oxazolone; 2.83 in the data set with biotinyl-Ile-oxazolone; 4.84 in the data set on biotinyl-Met-oxazolone.

On to “CUAACCCUGGUCAUCGAGUGA [Fam2.1 aminoacylation ribozyme variant]”, for which the self-aminoacylation with biotinyl-Phe-oxazolone was 11.8; with biotinyl-Val-oxazolone, 4.44; with biotinyl-Trp-oxazolone, 9.47; with biotinyl-Leu-oxazolone it was 8.32; in the data set on biotinyl-Ile-oxazolone, 4.07; with biotinyl-Met-oxazolone, 8.98.

On to “AUCACCCUGGUCAUGGAGUGA [Fam2.1 aminoacylation ribozyme variant]”, for which the self-aminoacylation came out at 34 with biotinyl-Phe-oxazolone; 3.58 in the data set on biotinyl-Val-oxazolone; 6.96 with biotinyl-Trp-oxazolone; 6.86 in the data set on biotinyl-Leu-oxazolone; 3.54 in the data set with biotinyl-Ile-oxazolone; 6.29 in the data set with biotinyl-Met-oxazolone.

As to “CCUCACUUCAAGCAAUCGUUC [Fam1B.1 aminoacylation ribozyme variant]”, the self-aminoacylation in the data set on biotinyl-Phe-oxazolone was 1.29; with biotinyl-Val-oxazolone, 0.637; in the data set with biotinyl-Trp-oxazolone, 0.754; with biotinyl-Leu-oxazolone it was 0.604; in the data set with biotinyl-Ile-oxazolone it was 0.664; with biotinyl-Met-oxazolone, 0.473.

With “CCACACUUGCAGCAAUCGGUC [Fam1B.1 aminoacylation ribozyme variant]”, the self-aminoacylation with biotinyl-Phe-oxazolone was 1.07; in the data set on biotinyl-Val-oxazolone, 1.64; in the data set with biotinyl-Trp-oxazolone, 1.23; with biotinyl-Leu-oxazolone it was 1.33; with biotinyl-Ile-oxazolone, 1.63; in the data set with biotinyl-Met-oxazolone, 1.2.

In the case of “CCACACUUCAAGCGAUCGGCC [Fam1B.1 aminoacylation ribozyme variant]”, the self-aminoacylation in the data set on biotinyl-Phe-oxazolone stood at 20.2; with biotinyl-Val-oxazolone it was 5.25; in the data set on biotinyl-Trp-oxazolone, 7.01; in the data set on biotinyl-Leu-oxazolone, 2.6; with biotinyl-Ile-oxazolone it was 3.31; in the data set on biotinyl-Met-oxazolone, 4.7.

On to “AUUAACCUAGGUCUUCGGGUG [Fam2.2 aminoacylation ribozyme variant]”, for which the self-aminoacylation came to 17.9 with biotinyl-Phe-oxazolone; 2.73 in the data set with biotinyl-Val-oxazolone; 2.95 in the data set on biotinyl-Trp-oxazolone; 3.58 in the data set with biotinyl-Leu-oxazolone; 2.64 in the data set with biotinyl-Ile-oxazolone; 2.98 with biotinyl-Met-oxazolone.
